In paper PMC6405930, “Conservation of the Amyloid Interactome Across Diverse Fibrillar Structures” (Scientific Reports, 2019):

B1: SPARC-like protein 1: CSF protein bound to fibrils (protein, UniProt Q14515 17-664, looked up)
SPARC-like protein 1: IPTNARLLSDHSKPTAETVAPDNTAIPSLRAEAEENEKETAVSTEDDSHHKAEKSSVLKSKEESHEQSAEQGKSSSQELGLKDQEDSDGHLSVNLEYAPTEGTLDIKEDMSEPQEKKLSENTDFLAPGVSSFTDSNQQESITKREENQEQPRNYSHHQLNRSSKHSQGLRDQGNQEQDPNISNGEEEEEKEPGEVGTHNDNQERKTELPREHANSKQEEDNTQSDDILEESDQPTQVSKMQEDEFDQGNQEQEDNSNAEMEEENASNVNKHIQETEWQSQEGKTGLEAISNHKETEEKTVSEALLMEPTDDGNTTPRNHGVDDDGDDDGDDGGTDGPRHSASDDYFIPSQAFLEAERAQSIAYHLKIEEQREKVHENENIGTTEPGEHQEAKKAENSSNEEETSSEGNMRVHAVDSCMSFQCKRGHICKADQQGKPHCVCQDPVTCPPTKPLDQVCGTDNQTYASSCHLFATKCRLEGTKKGHQLQLDYFGACKSIPTCTDFEVIQFPLRMRDWLKNILMQLYEANSEHAGYLNEKQRNKVKKIYLDEKRLLAGDHPIDLLLRDFKKNYHMYVYPVHWQFSELDQHPMDRVLTHSELAPLRASLVPMEHCITRFFEECDPNKDKHITLKEWGHCFGIKEEDIDENLLF
B2: EGF-containing fibulin-like extracellular matrix protein 1: CSF protein bound to fibrils (protein, UniProt Q12805 18-493, looked up)
EGF-containing fibulin-like …: QDTEETITYTQCTDGYEWDPVRQQCKDIDECDIVPDACKGGMKCVNHYGGYLCLPKTAQIIVNNEQPQQETQPAEGTSGATTGVVAASSMATSGVLPGGGFVASAAAVAGPEMQTGRNNFVIRRNPADPQRIPSNPSHRIQCAAGYEQSEHNVCQDIDECTAGTHNCRADQVCINLRGSFACQCPPGYQKRGEQCVDIDECTIPPYCHQRCVNTPGSFYCQCSPGFQLAANNYTCVDINECDASNQCAQQCYNILGSFICQCNQGYELSSDRLNCEDIDECRTSSYLCQYQCVNEPGKFSCMCPQGYQVVRSRTCQDINECETTNECREDEMCWNYHGGFRCYPRNPCQDPYILTPENRCVCPVSNAMCRELPQSIVYKYMSIRSDRSVPSDIFQIQATTIYANTINTFRIKSGNENGEFYLRQTSPVSAMLVLVKSLSGPREHIVDLEMLTVSSIGTFRTSSVLRLTIIVGPFSF
B3: Mimecan: CSF protein bound to fibrils (protein, UniProt P20774 21-298, looked up)
Mimecan: PPTQQDSRIIYDYGTDNFEESIFSQDYEDKYLDGKNIKEKETVIIPNEKSLQLQKDEAITPLPPKKENDEMPTCLLCVCLSGSVYCEEVDIDAVPPLPKESAYLYARFNKIKKLTAKDFADIPNLRRLDFTGNLIEDIEDGTFSKLSLLEELSLAENQLLKLPVLPPKLTLFNAKYNKIKSRGIKANAFKKLNNLTFLYLDHNALESVPLNLPESLRVIHLQFNNIASITDDTFCKANDTSYIRDRIEEIRLEGNPIVLGKHPNSFICLKRLPIGSYF
B4: Vitamin D-binding protein: CSF protein bound to fibrils (protein, UniProt P02774 17-474, looked up)
Vitamin D-binding protein: LERGRDYEKNKVCKEFSHLGKEDFTSLSLVLYSRKFPSGTFEQVSQLVKEVVSLTEACCAEGADPDCYDTRTSALSAKSCESNSPFPVHPGTAECCTKEGLERKLCMAALKHQPQEFPTYVEPTNDEICEAFRKDPKEYANQFMWEYSTNYGQAPLSLLVSYTKSYLSMVGSCCTSASPTVCFLKERLQLKHLSLLTTLSNRVCSQYAAYGEKKSRLSNLIKLAQKVPTADLEDVLPLAEDITNILSKCCESASEDCMAKELPEHTVKLCDNLSTKNSKFEDCCQEKTAMDVFVCTYFMPAAQLPELPDVELPTNKDVCDPGNTKVMDKYTFELSRRTHLPEVFLSKVLEPTLKSLGECCDVEDSTTCFNAKGPLLKKELSSFIDKGQELCADYSENTFTEYKKKLAERLKAKLPDATPTELAKLVNKHSDFASNCCSINSPPLYCDSEIDAELKNIL

Experiments:
Experiment in all cases: Fibril incubation with CSF, quantitative MS/MS of bound proteins
FAS4-AD aggregates = test system: T1, FAS4-AD aggregates; format: binding, human; parameters: key to Identification status of CSF protein bound: FAS4-AD: *: Identified, but not quantified; —: Not identified in any of the samples; settings: symbol cells
T1 construct: aggregates of a mutated version of the FAS1-4 domain of TGFBIp
Procedure: (§1) Plasma and CSF solutions were centrifuged (40,000 g, 20 min) to remove any aggregates. The protein concentration was determined using 280 nm absorbance assuming 1 Abs = 1 mg/mL. […] Control samples (without fibril material) were prepared similarly. All samples were incubated at room temperature for one hour under gentle agitation. Fibrils and fibril-bound proteins were pelleted by centrifugation at 17,000 g for 30 minutes. The supernatant (175 μL) was removed and the aggregate was re-suspended in 175 μL PBS and pelleted again before further preparation for gel analysis and spin-filter assisted digest for quantitative MS/MS.
(§2) The fibril-protein pellets were transferred to spin-filters (0.22 μm), washed twice in PBS (100 μL) and once in 1 M NaCl (100 μL). The fibrils and fibril-bound proteins were dissolved by one-hour incubation in 100 μL 6 M guanidinium chloride followed by elution from the spin-filter. The eluted proteins were loaded onto a 3 kDa MWCO filter unit for filter-assisted unfolding, reduction, alkylation, and trypsin digestion. In brief, samples were washed twice in 8 M urea, once in 8 M urea with 50 mM DTT, once in 8 M urea with 50 mM iodoaceteamide, and twice in 8 M Urea. The filter units were dried by centrifugation (14,000 g in 30 minutes) after every addition. Trypsin digestion was carried out with 0.25 μg sequencing grade trypsin from Sigma Aldrich in 50 mM ammonium bicarbonate overnight at 37 °C. The tryptic peptides were collected by centrifugation, acidified with TFA (0.1%) and micro-purified using POROS R2 column material (Applied Biosystems) packed in P200 pipette tips (Sarstedt).
(§3) LC-MS/MS analyses were performed on an EASY-nLC II system (Thermo Fisher Scientific) connected to a TripleTOF 5600+ mass spectrometer (Sciex) equipped with a NanoSpray III source (Sciex) and operated under Analyst TF 1.6.0 control.
(§4) The micro-purified tryptic peptides were dissolved in 0.1% formic acid, injected and trapped on an in-house packed trap column (2 cm × 100 μm I.D) with RP ReproSil-Pur C18-AQ 3 μm resin (Dr. Maisch GmbH). Peptides were eluted from the trap column and separated on a 15 cm analytical column (75 μm i.d.) packed in-house in a pulled emitter with RP ReproSil-Pur C18-AQ 3 μm resin (Dr. Maisch GmbH). Elution from the analytical column was performed with a linear gradient from 5% to 35% phase B (90% acetonitrile with 0.1% formic acid) over 20 min for protein identification and 50 min for quantitative analysis, respectively.
(§5) All samples were analysed three times, yielding nine MS/MS experiments for each fibril for both plasma and CSF. For the area-based extracted ion chromatogram (XIC) quantification, the acquisition method was set up as an information-dependent acquisition (IDA) experiment collecting up to 25 MS/MS spectra in each 1.6 sec cycle using an exclusion window of 6 sec.
(§6) XIC quantification was based on the average ion intensity of the three most abundant peptides for each protein. Only proteins quantified in at least four out of nine MS/MS experiments per fibril were included in the quantification. The total ion scores were visualized after grouping the proteins according to function (Figure S11).
(§7) For each MS/MS experiment, the ion intensities of the individual proteins were normalized to the total ion intensity of that MS/MS experiment to achieve a relative protein composition. The contribution of each protein was averaged over all nine MS/MS experiments (Tables 1 and 2).

Ab1 fibrils = test system: T2, Ab1 fibrils; format: binding, human; settings: 4:1 w/w CSF protein:fibril
T2 construct: Synthetic amyloid β peptide 1–40 was purchased from Caslo Aps (Lyngby, Denmark); purchased Caslo Aps (Lyngby, Denmark); host or cells: synthetic peptide
Procedure: as §1, §2, §3, §4, §5, §6, §7

αSN fibrils = αSN fibrils (Homo sapiens, UniProt P37840); format: binding; parameters: key to Identification status of CSF protein bound: αSN: *: Identified, but not quantified; —: Not identified in any of the samples; settings: for Identification status of CSF protein bound: αSN: symbol cells
Procedure: as §1, §2, §3, §4, §5, §6, §7

glucagon fibrils = target: T3, glucagon fibrils (Homo sapiens, UniProt P01275); format: binding; settings: 4:1 w/w CSF protein:fibril
T3 construct: fibrils of the peptide hormone glucagon
T3 sequence (P01275 53-81 limits assumed): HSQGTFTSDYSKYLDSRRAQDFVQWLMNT
Procedure: as §1, §2, §3, §4, §5, §6, §7

C-36 fibrils = target: T4, C-36 fibrils (Homo sapiens, UniProt P01009); format: binding; settings: 4:1 w/w CSF protein:fibril
T4 construct: the 36 residue C-terminal fragment of α1-antitrypsin (C-36)
T4 sequence (P01009 383-418 limits assumed): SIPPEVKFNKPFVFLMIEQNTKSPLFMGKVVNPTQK
Procedure: as §1, §2, §3, §4, §5, §6, §7

Ab2 fibrils = test system: T5, Ab2 fibrils; format: binding, human; settings: 4:1 w/w CSF protein:fibril
T5 construct: Two structurally distinct fibrils of the Aβ(1–40) peptide associated with AD
Procedure: as §1, §2, §3, §4, §5, §6, §7

| Molecule | Identification status of CSF protein bound: FAS4-AD (FAS4-AD aggregates) | Relative composition of CSF proteins bound: Ab1 (Ab1 fibrils) | Identification status of CSF protein bound: αSN (αSN fibrils) | Relative composition of CSF proteins bound: Glucagon (glucagon fibrils) | Relative composition of CSF proteins bound: C-36 (C-36 fibrils) | Relative composition of CSF proteins bound: Ab2 (Ab2 fibrils) | Relative composition of CSF proteins bound: αSN (αSN fibrils; 4:1 w/w CSF protein:fibril) |
| --- | --- | --- | --- | --- | --- | --- | --- |
| B1 | — | 1.2 ± 0.1 % of total protein | * | 0.4 ± 0.1 % of total protein | 0.8 ± 0.4 % of total protein | 1.4 ± 0.0 % of total protein |  |
| B2 | — | 0.6 ± 0.2 % of total protein | * | 0.2 ± 0.1 % of total protein | 0.7 ± 0.1 % of total protein | 1.0 ± 0.3 % of total protein |  |
| B3 | * | 0.5 ± 0.0 % of total protein |  | 0.2 ± 0.1 % of total protein | 0.4 ± 0.1 % of total protein | 0.6 ± 0.2 % of total protein | 2.1 ± 0.9 % of total protein |
| B4 | — | 0.7 ± 0.0 % of total protein | — | 0.8 ± 0.1 % of total protein | 1.4 ± 0.8 % of total protein | 1.1 ± 0.0 % of total protein |  |
